From patent US20140154265

Legend:
[1] = target: FLAG-tagged ubiquitin, P0CG48
[2] = target: ubiquitin-aminomethylcoumarin, P0CG48
[3] = target: T1, RLRGG-AMC, C-terminal peptide motif of Ub and ISG15 coupled to aminomethylcoumarin
T1 chain: RLRGG

Chain of ubiquitin-aminomethylcoumarin, P0CG48 (P0CG48 whole entry, looked up): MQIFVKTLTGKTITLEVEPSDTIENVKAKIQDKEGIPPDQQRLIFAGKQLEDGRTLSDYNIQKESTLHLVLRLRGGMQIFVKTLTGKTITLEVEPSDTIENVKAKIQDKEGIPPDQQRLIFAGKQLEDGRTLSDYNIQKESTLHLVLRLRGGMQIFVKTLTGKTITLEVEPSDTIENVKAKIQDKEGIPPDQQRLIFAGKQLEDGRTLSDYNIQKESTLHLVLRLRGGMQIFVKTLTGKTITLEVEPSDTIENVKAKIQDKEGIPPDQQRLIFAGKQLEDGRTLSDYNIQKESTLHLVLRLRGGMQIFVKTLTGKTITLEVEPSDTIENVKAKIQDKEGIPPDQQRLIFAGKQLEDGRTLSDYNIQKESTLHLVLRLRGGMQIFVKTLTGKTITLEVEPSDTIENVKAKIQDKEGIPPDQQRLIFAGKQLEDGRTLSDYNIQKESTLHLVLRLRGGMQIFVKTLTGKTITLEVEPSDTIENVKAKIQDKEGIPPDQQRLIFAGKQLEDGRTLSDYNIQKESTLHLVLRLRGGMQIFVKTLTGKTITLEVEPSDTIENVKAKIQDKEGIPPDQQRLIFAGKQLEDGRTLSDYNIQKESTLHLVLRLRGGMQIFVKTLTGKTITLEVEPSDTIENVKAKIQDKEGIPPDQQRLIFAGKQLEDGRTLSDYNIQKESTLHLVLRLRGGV
Chain of FLAG-tagged ubiquitin, P0CG48 (P0CG48 whole entry, looked up): as above

| Protein | density of the alpha-flag lane (amount of remaining ubiquitin conjugates) [1] | kcat/KM [2] [M⁻¹ s⁻¹] | kcat/KM [3] [M⁻¹ s⁻¹] | kcat/KM value for Ub-AMC against that of the wild-type [2] |
| --- | --- | --- | --- | --- |
| EAV nsp2-3 polyprotein (residues 261-1064 of EAV pp1a) with N-terminal HA tag, PLP2 mutant I353R (protein) GYNPPGDGACGYRCLAFMNGATVVSAGCSSDLWCDDELAYRVFQLSPTFTVTIPGGRVCPNAKYAMICDKQHWRVKRAKGVGLCLDESCFRGRCNCQRMSGPPPAPVSAAVLDHILEAATFGNVRVVTPEGQPRPVPAPRVRPSANSSGDVKDPAPVPPVPKPRTKLATPNPTQAPIPAPRTRLQGASTQEPLASAGVASDSAPKWRVAKTVYSSAERFRTELVQRARSVGDVLVQALPLKTPAVQRYTMTLKMMRSRFSWHCDVWYPLAVIACLLPIWPSLALLLSFAIGLIPSVGNNVVLTALLVSSANYVASMDHQCEGAACLALLEEEHYYRAVRWRPITGALSLVLNLLGQVGYVARSTFDAAYVPCTVFDLCSFAILYLCRNRCWRCFGRCVRVGPATHVLGSTGQRVSKLALIDLCDHFSKPTIDVVGMATGWSGCYTGTAAMERQCASTVDPHSFDQKKAGATVYLTPPVNSGSALQCLNVMWKRPIGSTVLGEQTGAVVTAVKSISFSPPCCVSTTLPTRPGVTVVDHALYNRLTASGVDPALLRVGQGDFLKLNPGFRLIGGWIYGICYFVLVVVSTFTCLPIKCGIGTRDPFCRRVFSVPVTKTQEHCHAGMCASAEGISLDSLGLTQLQSYWIAAVTSGLVILLVCHRLAISALDLLTLASPLVLLVFPWASVGLLLACSLAGAAVKIQLLATLFVNLFFPQATLVTMGYWACVAALAVYSLMGLRVKVNVPMCVTPAHFLLLARSAGQSREQMLRVSAAAPTNSLLGVARDCYVTGTTRLYIPKEGGMVFE | shows a density of the alpha-flag lane that is about twice as high as that of the T312A lane | – | – | – |
| EAV nsp2-3 polyprotein (residues 261-1064 of EAV pp1a) with N-terminal HA tag, PLP2 mutant T312A (protein) GYNPPGDGACGYRCLAFMNGATVVSAGCSSDLWCDDELAYRVFQLSPTFTVAIPGGRVCPNAKYAMICDKQHWRVKRAKGVGLCLDESCFRGICNCQRMSGPPPAPVSAAVLDHILEAATFGNVRVVTPEGQPRPVPAPRVRPSANSSGDVKDPAPVPPVPKPRTKLATPNPTQAPIPAPRTRLQGASTQEPLASAGVASDSAPKWRVAKTVYSSAERFRTELVQRARSVGDVLVQALPLKTPAVQRYTMTLKMMRSRFSWHCDVWYPLAVIACLLPIWPSLALLLSFAIGLIPSVGNNVVLTALLVSSANYVASMDHQCEGAACLALLEEEHYYRAVRWRPITGALSLVLNLLGQVGYVARSTFDAAYVPCTVFDLCSFAILYLCRNRCWRCFGRCVRVGPATHVLGSTGQRVSKLALIDLCDHFSKPTIDVVGMATGWSGCYTGTAAMERQCASTVDPHSFDQKKAGATVYLTPPVNSGSALQCLNVMWKRPIGSTVLGEQTGAVVTAVKSISFSPPCCVSTTLPTRPGVTVVDHALYNRLTASGVDPALLRVGQGDFLKLNPGFRLIGGWIYGICYFVLVVVSTFTCLPIKCGIGTRDPFCRRVFSVPVTKTQEHCHAGMCASAEGISLDSLGLTQLQSYWIAAVTSGLVILLVCHRLAISALDLLTLASPLVLLVFPWASVGLLLACSLAGAAVKIQLLATLFVNLFFPQATLVTMGYWACVAALAVYSLMGLRVKVNVPMCVTPAHFLLLARSAGQSREQMLRVSAAAPTNSLLGVARDCYVTGTTRLYIPKEGGMVFE | a mutant such as T312A already shows a level of DUB-activity that leads to a significantly denser alpha-flag lane, which represents the amount of remaining ubiquitin conjugates, than that of the wild-type virus | – | – | – |
| EAV PLP2 domain (residues 261-392 of EAV pp1a) with C-terminal HIS6 purification tag, wild-type (protein) GYNPPGDGACGYRCLAFMNGATVVSAGCSSDLWCDDELAYRVFQLSPTFTVTIPGGRVCPNAKYAMICDKQHWRVKRAKGVGLCLDESCFRGICNCQRMSGPPPAPVSAAVLDHILEAATFGNVRVVTPEGQHHHHHH | – | 21000 ± 2000 | 48 ± 8 | – |
| EAV PLP2 domain I353R mutant (Ile353Arg), recombinant enzyme (protein) GYNPPGDGACGYRCLAFMNGATVVSAGCSSDLWCDDELAYRVFQLSPTFTVTIPGGRVCPNAKYAMICDKQHWRVKRAKGVGLCLDESCFRGRCNCQRMSGPPPAPVSAAVLDHILEAATFGNVRVVTPEGQHHHHHH | – | 1100 ± 100 | 71 ± 8 | the kcat/KM value for Ub-AMC of the mutant I353R is 20 times lower than that of the wild-type virus |
